Assay results: the Immune Epitope Database (IEDB)
pIC50, pKd: −log10 of the molar value.

How the values were obtained:
HLA-A*23:01 = assay: IEDB peptide-MHC binding, purified MHC/competitive/fluorescence; filed as Kd, often an IC50 or EC50 that approximates it; ≥ and ≤ were set here for values at or beyond the usual limits of such assays
HLA-A*01:01 = assay: IEDB peptide-MHC binding, purified MHC/direct/fluorescence; filed as Kd, often an IC50 or EC50 that approximates it; ≥ and ≤ were set here for values at or beyond the usual limits of such assays; settings: source organism: Mycobacterium tuberculosis variant bovis
HLA-A*03:01 [1] = assay: as above; settings: source organism: Mycobacterium tuberculosis variant bovis
HLA-B*35:01 = assay: IEDB peptide-MHC binding, purified MHC/competitive/fluorescence; filed as Kd, often an IC50 or EC50 that approximates it; ≥ and ≤ were set here for values at or beyond the usual limits of such assays; settings: source organism: Mycobacterium tuberculosis F11
HLA-A*02:01 [2] = assay: IEDB peptide-MHC binding, purified MHC/direct/fluorescence; filed as Kd, often an IC50 or EC50 that approximates it; ≥ and ≤ were set here for values at or beyond the usual limits of such assays; settings: source organism: Marburg virus - Musoke, Kenya, 1980
HLA-A*02:12 [3] = assay: as above; settings: source organism: Ravn virus - Ravn, Kenya, 1987
HLA-A*29:02 [4] = assay: as above; settings: source organism: Ravn virus - Ravn, Kenya, 1987
HLA-A*30:01 = assay: as above; settings: source organism: Ravn virus - Ravn, Kenya, 1987
HLA-A*69:01 = assay: as above; settings: source organism: Marburg virus - Musoke, Kenya, 1980
HLA-B*07:02 = assay: as above; settings: source organism: Ravn virus - Ravn, Kenya, 1987
HLA-B*15:01 [5] = assay: as above; settings: source organism: Ravn virus - Ravn, Kenya, 1987
HLA-B*15:17 [6] = assay: as above; settings: source organism: Ravn virus - Ravn, Kenya, 1987
HLA-B*18:01 [7] = assay: as above; settings: source organism: Ravn virus - Ravn, Kenya, 1987
HLA-B*40:01 = assay: as above; settings: source organism: Ravn virus - Ravn, Kenya, 1987
HLA-B*44:02 = assay: as above; settings: source organism: Ravn virus - Ravn, Kenya, 1987
HLA-B*51:01 [8] = assay: as above; settings: source organism: Ravn virus - Ravn, Kenya, 1987
HLA-B*57:01 [9] = assay: as above; settings: source organism: Ravn virus - Ravn, Kenya, 1987
HLA-B*58:01 = assay: as above; settings: source organism: Ravn virus - Ravn, Kenya, 1987
HLA-A*02:01 [10] = assay: IEDB peptide-MHC binding, purified MHC/competitive/radioactivity; ≥ and ≤ were set here for values at or beyond the usual limits of such assays
HLA-A*02:01 [11] = assay: IEDB peptide-MHC binding, purified MHC/competitive/fluorescence; filed as Kd, often an IC50 or EC50 that approximates it; ≥ and ≤ were set here for values at or beyond the usual limits of such assays; settings: source organism: Vibrio antiquarius
HLA-A*02:12 [12] = assay: as above; settings: source organism: Vibrio antiquarius
HLA-A*03:01 [13] = assay: as above; settings: source organism: Vibrio antiquarius
HLA-A*24:03 = assay: as above; settings: source organism: Vibrio antiquarius
HLA-A*26:01 = assay: as above; settings: source organism: Vibrio antiquarius
HLA-A*29:02 [14] = assay: as above; settings: source organism: Vibrio antiquarius
HLA-B*15:01 [15] = assay: as above
HLA-B*15:17 [16] = assay: as above; settings: source organism: Vibrio antiquarius
HLA-B*18:01 [17] = assay: as above; settings: source organism: Vibrio antiquarius
HLA-B*27:03 = assay: as above; settings: source organism: Vibrio antiquarius
HLA-B*39:01 = assay: as above; settings: source organism: Vibrio antiquarius
HLA-B*46:01 = assay: as above; settings: source organism: Vibrio antiquarius
HLA-B*51:01 [18] = assay: as above; settings: source organism: Vibrio antiquarius
HLA-B*57:01 [19] = assay: as above; settings: source organism: Vibrio antiquarius
HLA-B*08:01 = assay: as above; settings: source organism: Escherichia coli 536
HLA-B*15:42 = assay: as above; settings: source organism: Escherichia coli 536
HLA-B*45:06 = assay: as above; settings: source organism: Escherichia coli 536
HLA-B*83:01 = assay: as above; settings: source organism: Escherichia coli 536
[20] = source organism: Vibrio antiquarius

**Q.** How did the pKd (HLA-A*23:01; source organism: Vibrio vulnificus YJ016) turn out when LYQKNIEHF was run?
**A.** ≥ 10.00

**Q.** Which results are given for MLAPSTLGY?
**A.** pKd (HLA-A*01:01): 7.28; pKd (HLA-A*03:01 [1]): 7.46; pKd (HLA-B*35:01): ≥ 10.00

**Q.** How did the pKd (HLA-A*02:01 [2]) turn out when NLFDWMHFL was run?
**A.** ≥ 9.00

**Q.** What about the pKd (HLA-A*02:12 [3]) of the same sequence?
**A.** 8.22

**Q.** What about the pKd (HLA-A*29:02 [4]) of the same sequence?
**A.** 5.62

**Q.** And the pKd (HLA-A*30:01)?
**A.** ≤ 4.70

**Q.** What about the pKd (HLA-A*69:01) of the same sequence?
**A.** 8.60

**Q.** What about the pKd (HLA-B*07:02) of the same sequence?
**A.** ≤ 4.70

**Q.** What about the pKd (HLA-B*15:01 [5]) of the same sequence?
**A.** ≤ 4.70

**Q.** And the pKd (HLA-B*15:17 [6])?
**A.** ≤ 4.70

**Q.** What about the pKd (HLA-B*18:01 [7]) of the same sequence?
**A.** ≤ 4.70

**Q.** And the pKd (HLA-B*40:01)?
**A.** ≤ 4.70

**Q.** What about the pKd (HLA-B*44:02) of the same sequence?
**A.** ≤ 4.70

**Q.** What about the pKd (HLA-B*51:01 [8]) of the same sequence?
**A.** ≤ 4.70

**Q.** What about the pKd (HLA-B*57:01 [9]) of the same sequence?
**A.** ≤ 4.70

**Q.** And the pKd (HLA-B*58:01)?
**A.** ≤ 4.70

**Q.** How did the pIC50 (HLA-A*02:01 [10]; source organism: Homo sapiens) turn out when PTLDKVLEV was run?
**A.** 5.70

**Q.** RMYSPISIL was tested. Which pIC50 (HLA-A*02:01 [10]; source organism: Human immunodeficiency virus 1) did it give?
**A.** 7.25

**Q.** VILGVLLLI was tested. Which pIC50 (HLA-A*02:01 [10]; source organism: Homo sapiens) did it give?
**A.** 6.79

**Q.** How did the pKd (HLA-A*02:01 [11]) turn out when VTGCASLYV was run?
**A.** 7.33

**Q.** And the pKd (HLA-A*02:12 [12])?
**A.** 7.43

**Q.** And the pKd (HLA-A*03:01 [13])?
**A.** ≤ 4.70

**Q.** And the pKd (HLA-A*23:01; [20])?
**A.** ≤ 4.70

**Q.** And the pKd (HLA-A*24:03)?
**A.** ≤ 4.70

**Q.** What about the pKd (HLA-A*26:01) of the same sequence?
**A.** ≤ 4.70

**Q.** And the pKd (HLA-A*29:02 [14])?
**A.** ≤ 4.70

**Q.** And the pKd (HLA-B*15:01 [15]; [20])?
**A.** ≤ 4.70

**Q.** And the pKd (HLA-B*15:17 [16])?
**A.** ≤ 4.70

**Q.** What about the pKd (HLA-B*18:01 [17]) of the same sequence?
**A.** ≤ 4.70

**Q.** What about the pKd (HLA-B*27:03) of the same sequence?
**A.** ≤ 4.70

**Q.** And the pKd (HLA-B*39:01)?
**A.** ≤ 4.70

**Q.** What about the pKd (HLA-B*46:01) of the same sequence?
**A.** ≤ 4.70

**Q.** What about the pKd (HLA-B*51:01 [18]) of the same sequence?
**A.** ≤ 4.70

**Q.** What about the pKd (HLA-B*57:01 [19]) of the same sequence?
**A.** ≤ 4.70

**Q.** With YSRMLYIEF as the sequence, how does the pKd (HLA-B*08:01) read?
**A.** ≤ 4.70

**Q.** And the pKd (HLA-B*15:01 [15]; source organism: Escherichia coli 536)?
**A.** 5.38

**Q.** And the pKd (HLA-B*15:42)?
**A.** ≤ 5.30

**Q.** What about the pKd (HLA-B*45:06) of the same sequence?
**A.** ≤ 5.30

**Q.** What about the pKd (HLA-B*83:01) of the same sequence?
**A.** ≤ 5.30
